Results on 14 sequences are retold here after the supplement of paper PMC9170038.

This series relates to MS2 coat protein. Description: apparent KD of MS2 coat protein; higher = weaker reporter binding. The note with it: Eterna round: R107. As to the method:
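RNA-MaP round R107: designed RNA switches with theophylline, tryptophan, arginine or FMN aptamers are transcribed on-chip within common flanks. They are titrated with SNAP-549-labelled MS2 coat protein in RNA-MaP buffer (100 mM Tris pH 7.5, 80 mM KCl, 4 mM MgCl2), without ligand or with the indicated ligand. Median apparent KD per design.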

[1] abbreviates: input ligand: theophylline 20 uM.
[2] abbreviates: input ligand: tryptophan 2.4 mM.
Where [3] appears, read: input ligand: theophylline 2 mM.

Turning to “CAUACUUUAGUAUGUAAUGUGGACAGUGAUACCAGAUACGAAAGUAUCCCUUGGCAGCACAACAUGAGGAUCACCCAUGUAUUUU [Theophylline A 3]”, the “apparent KD of MS2 coat protein” value (input ligand: arginine 13.2 mM) is 20.9 nM, the “apparent KD of MS2 coat protein” value under setting [1] was 20 nM and the “apparent KD of MS2 coat protein” value under setting [2] came to 19.2 nM.
Regarding “GCCUAGCAUCGAAGGAGCGCUGGUGAAACUGACUAAUAUACAUGAGGAUCACCCAUGUGCUAGCAGGUAGGUCGCGAUGCUAGGC [SSAB NP+V+V2 #11]”, the “apparent KD of MS2 coat protein” value reads like this: (input ligand: arginine 13.2 mM) 20.4 nM; (input ligand: none) 21.7 nM; under setting [1], 27.2 nM; under setting [3], 25.5 nM; under setting [2], 21.1 nM.
For the sequence “AGAUUACAUGUUUUAAUACGGAAAACUGAUACCAGUGUAUCUAUUCACCCUUGGCAGCAGCAACAUGAGGAUCACCCAUGUAUUA [JR_SSTheophyA_Sub016]”, the “apparent KD of MS2 coat protein” value by setting is: (input ligand: arginine 13.2 mM) 17.9 nM; under setting [1], 21.5 nM; under setting [2], 20 nM.
For “GAAUAAGAAUCGGCCGCCACUCACAUGAGGAUCACCCAUGUACAUGAGGAACAUGAAAAUCACCCGAGGACCGGGAUAUAUGUUC [Excluion - Tryptophan B #1]”, the “apparent KD of MS2 coat protein” value (input ligand: arginine 13.2 mM) worked out at 31.1 nM, the “apparent KD of MS2 coat protein” value under setting [1] turned out to be 67.4 nM and the “apparent KD of MS2 coat protein” value under setting [3] was determined as 71.3 nM.
For “AGUCUGGACUCGGCCGCCACUCGUGAUGCUUUGGCACAUGAGGAUCACCCAUGUGGUCGGCCUUAGAGGACCGGGAGUACCAGCU [Zaraoned]”, in that order: 38.6 nM, 65.9 nM and 61.3 nM.
For the sequence “AUACAUGAGGAUCACCCAUGUAUAGAUGAAGGAGCGACCAGAGGGUCAGGUAGGUCGCAUCACAUGAGGAUCACCCAUGUACUUA [DOUBLE!!! :-D #9]”, the “apparent KD of MS2 coat protein” value stood at 27.1 nM (input ligand: arginine 13.2 mM); 42.1 nM (input ligand: none); 43.7 nM under setting [1]; 42.7 nM under setting [3]; 41.5 nM under setting [2].
For “AUCAUCAGUUCGGCCGCCACUGUUUGGCACAGUUGUAUCGUACAUGAGGAUCACCCAUGUCACCACAGGACCGGGAACGCCGUCG [theeternabot_exclusion_MS2_Trp_B_1]”, the “apparent KD of MS2 coat protein” value was found to be 16.3 nM (input ligand: arginine 13.2 mM), 21.6 nM under setting [1] and 18.3 nM under setting [3].
As to “UAAACAUGAGGAUCACCCAUGUUGGAUGAAGGAGCGACCAGAGGGUCAGGUAGGUCGCAUCACAUGAGGAUCACCCAUGUCAUUU [DOUBLE!!! :-D #12]”, the “apparent KD of MS2 coat protein” value amounted to 59.1 nM (input ligand: arginine 13.2 mM); 108 nM (input ligand: none); 114 nM under setting [1]; 147 nM under setting [3]; 97.7 nM under setting [2].
With “UUAAUGGAGCUUUUAUUUACGAUUUCUGAUACCAGUGUUUCAUUUCACCCUUGGCAGCAGUGACAUGAGGAUCACCCAUGUAAUA [JR_Nu_SSTheophyA_Sub021]”, the “apparent KD of MS2 coat protein” value is, setting by setting: (input ligand: arginine 13.2 mM) 30.3 nM; under setting [1], 33.8 nM; under setting [2], 25.9 nM.
Take “GGUGGCGGGACUGAUACCAGCCACCACCGAUAGACCACAUGAGGAUCACCCAUGUUGGGUGGCCCUUGGCAGCAGUCUUGCGGCU [#1 Same State - Theophylline B Attempt #14 (HarryS)]”: the “apparent KD of MS2 coat protein” value by setting is: (input ligand: arginine 13.2 mM) 46.8 nM; (input ligand: none) 797 nM; under setting [1], 523 nM; under setting [3], 163 nM; under setting [2], 739 nM.
The like results for “AGUUAAAUAUGUUAAUAACUAUUUACUGAAGGAGCGUGUUUUGACACAGGUAGGUCGCAGUGACAUGAGGAUCACCCAUGUCGUA [#08 Same State - Arginine A]” were, in that order, 20.3 nM, 17.4 nM, 21.8 nM, 21.6 nM and 19.2 nM.
With “AAAAGUGGGUCAAUUAUUUAAACUUCAGAAGGAGCGUGAUGUUUCACAGGUAGGUCGCUGAUAACAUGAGGAUCACCCAUGUAUU [JR_ExcArginiA_Sub007]”, the “apparent KD of MS2 coat protein” value runs as follows: (input ligand: arginine 13.2 mM) 30.8 nM; (input ligand: none) 47.4 nM; under setting [1], 59.8 nM; under setting [3], 54.4 nM; under setting [2], 47 nM.
As to “UUCAAAGGGAACGGUGCUGGUGACAGAGAUACCAGCGCGGUAACGCGCCCUUGGCAGCUCAGAACAUGAGGAUCACCCAUGUAAU [Exclusion Theophylline A GF23]”, the “apparent KD of MS2 coat protein” value turned out to be 15.9 nM (input ligand: arginine 13.2 mM), 20.7 nM under setting [1] and 15.4 nM under setting [2].
“GGGCGCUAUCCCGCGAGGGAUAGCGUUCUUCGAGGACCGGUACGGCCGCCACUCGAACGAGUGGUGACAUGAGGAUCACCCAUGU [Paa]”: the “apparent KD of MS2 coat protein” value is, setting by setting: (input ligand: arginine 13.2 mM) 35.6 nM; (input ligand: none) 63.6 nM; under setting [1], 75 nM; under setting [3], 81.1 nM; under setting [2], 58.7 nM.
